Earlier results, collected in PMC3898597.

Key:
Test in all cases: SPR
[1] = target: Gαt (Bos taurus) (UniProt P04695)
[2] = target: transducin heterotrimer (Gt) (Bos taurus) (UniProt P04695)
[3] = target: Gβ1γ1 (Bos taurus) (UniProt P62871)

Sequence of rhodopsin (P02699 whole entry): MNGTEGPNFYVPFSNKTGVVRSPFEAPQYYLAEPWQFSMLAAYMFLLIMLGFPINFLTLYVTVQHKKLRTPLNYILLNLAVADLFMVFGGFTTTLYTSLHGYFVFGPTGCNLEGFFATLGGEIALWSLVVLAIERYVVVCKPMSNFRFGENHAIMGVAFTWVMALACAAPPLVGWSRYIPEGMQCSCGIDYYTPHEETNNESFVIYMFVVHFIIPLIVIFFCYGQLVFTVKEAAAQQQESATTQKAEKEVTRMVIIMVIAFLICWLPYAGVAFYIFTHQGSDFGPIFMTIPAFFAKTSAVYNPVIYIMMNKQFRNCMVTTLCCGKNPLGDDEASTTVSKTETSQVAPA
Sequence of transducin heterotrimer (Gt) (Bos taurus) (P04695 2-350, chain 1 of 3): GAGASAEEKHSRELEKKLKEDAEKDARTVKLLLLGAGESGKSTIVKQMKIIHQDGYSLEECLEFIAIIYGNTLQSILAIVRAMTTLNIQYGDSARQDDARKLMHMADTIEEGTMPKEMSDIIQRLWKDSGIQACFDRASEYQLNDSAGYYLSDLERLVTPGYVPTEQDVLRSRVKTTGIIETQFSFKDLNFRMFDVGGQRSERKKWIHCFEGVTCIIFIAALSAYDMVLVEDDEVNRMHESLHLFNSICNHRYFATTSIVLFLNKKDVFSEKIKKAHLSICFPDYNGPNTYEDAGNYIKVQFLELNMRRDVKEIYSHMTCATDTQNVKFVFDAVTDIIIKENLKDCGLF
Sequence of transducin heterotrimer (Gt) (Bos taurus) (P62873 2-340, chain 2 of 3, further chain): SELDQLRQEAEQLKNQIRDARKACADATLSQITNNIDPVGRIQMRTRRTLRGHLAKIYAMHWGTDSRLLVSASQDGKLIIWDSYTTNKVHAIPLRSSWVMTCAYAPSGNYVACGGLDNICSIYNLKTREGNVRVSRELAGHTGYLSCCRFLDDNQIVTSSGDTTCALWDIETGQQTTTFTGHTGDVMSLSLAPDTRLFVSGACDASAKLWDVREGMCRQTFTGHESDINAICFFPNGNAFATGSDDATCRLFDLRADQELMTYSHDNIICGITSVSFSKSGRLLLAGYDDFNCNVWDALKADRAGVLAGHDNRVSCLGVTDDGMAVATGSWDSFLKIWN
Sequence of transducin heterotrimer (Gt) (Bos taurus) (P02698 2-71, chain 3 of 3, further chain): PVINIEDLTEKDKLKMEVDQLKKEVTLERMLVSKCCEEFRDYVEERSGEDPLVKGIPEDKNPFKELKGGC
Sequence of Gαt (Bos taurus) (P04695 2-350): as the sequence (P04695 2-350, chain 1 of 3) above
Sequence of rhodopsin (recombinant) (P02699 whole entry): as the sequence (P02699 whole entry) above

Row | Substance | Kd [1] [nM] | Kd [2] [nM] | Kd [3] [nM]
1 | rhodopsin (from UniProt P02699) | 300 | 13.6 | 300
2 | rhodopsin (recombinant) (from UniProt P02699) |  | 9.1 | 
